“And” between values parts separate entries of the source, which are not always exact repeats. Equal values may be shown once.
Columns and labels:
SEC-MALS = molecular target: the molecule itself; assay: SEC-MALS
M1 (linear) GST-Ub2 = M1 (linear) GST-Ub2 (UniProt P0CG48); assay: BLI

B1: CEP55 His-NOA (His-tag version of the human CEP55 NOA fragment, residues 304–396) (domain or fragment)
chain: IQKLREENDIARGKLEEEKKRSEELLSQVQFLYTSLLKQQEEQTRVALLEQQMQACTLDFENEKLDRQHVQHQLHVILKELRKARNQITQLES
fold weaker dimerization affinity than NEMO NOA (SEC-MALS): 6 fold | stoichiometry N (SEC-MALS): 2 and 6

ESLVECPKCNIQYPATEHRDLLVHVEYCSK [Strep-tag II CEP55 ZF (StrepII-tag version of CEP55 ZF peptide, residues 435–464)]
Kd (M1 (linear) GST-Ub2): 1600 nM

ESLVECPKCNIQYPATEHRDLLVHVAYCSK [StrepII-tag version of CEP55 ZF mutant E460A]
fold reduction of binding affinity against WT (M1 (linear) GST-Ub2): 26 fold

Source: publication PMC6817665 (iScience, 2019)
